The text below walks through data of the supplement of paper PMC10567573.

B1: BTBD1 (parent)
chain: FVLGKGRGAAAAGGPQRIPAHRFV
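Also: lentivirally expressed fusions sorted by FACS into six bins by GFP to DsRed ratio, PSI derived from sequencing read proportions per bin multiplied by bin number.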

This data set covers variants of B1. In words: protein stability index of a GFP-peptide fusion (GPS, HEK-293T) (PSI 1-6); higher = more stable. As to conditions: c terminus: a fixed tail appended.
Turning to FVLGKGRGAAAAGGPQRIDAHRFV [P19D], the protein stability index amounted to 1.53.

Take FVLGKGRGAAAAGGPQRIAAHRFV [P19A]: the protein stability index is 1.34.

Regarding FVLGKGRGAAAAGGPQRIIAHRFV [P19I], the protein stability index stood at 2.16.

Consider FVLGKGRGAAAAGGPQRIVAHRFV [P19V], for which the protein stability index worked out at 1.26.

With FVLGKGRGAAAAGGPQRIHAHRFV [P19H], the protein stability index amounted to 1.27.

In the case of FVLGKGRGAAAAGGPQRIEAHRFV [P19E], the protein stability index turned out to be 1.78.

Take FVLGKGRGAAAAGGPQRITAHRFV [P19T]: the protein stability index is 1.88.

FVLGKGRGAAAAGGPQRIQAHRFV [P19Q]: the protein stability index came out at 2.17.

FVLGKGRGAAAAGGPQRIRAHRFV [P19R]: the protein stability index was found to be 1.81.

For FVLGKGRGAAAAGGPQRILAHRFV [P19L], the protein stability index stood at 1.5.

Turning to FVLGKGRGAAAAGGPQRINAHRFV [P19N], the protein stability index was 2.06.

As to FVLGKGRGAAAAGGPQRISAHRFV [P19S], the protein stability index was 1.31.

In the case of FVLGKGRGAAAAGGPQRIPAFRFV [H21F], the protein stability index worked out at 4.04.

In the case of FVLGKGRGAAAAGGPQRIPAVRFV [H21V], the protein stability index was found to be 2.72.

For FVLGKGRGAAAAGGPQRIPAQRFV [H21Q], the protein stability index stood at 1.91.

On to FVLGKGRGAAAAGGPQRIPAARFV [H21A], for which the protein stability index stood at 2.14.

As to FVLGKGRGAAAAGGPQRIPADRFV [H21D], the protein stability index is 2.22.

In the case of FVLGKGRGAAAAGGPQRIPASRFV [H21S], the protein stability index was found to be 1.56.

For FVLGKGRGAAAAGGPQRIPALRFV [H21L], the protein stability index is 2.61.

Take FVLGKGRGAAAAGGPQRIPAPRFV [H21P]: the protein stability index was 1.97.

Take FVLGKGRGAAAAGGPQRIPAMRFV [H21M]: the protein stability index turned out to be 3.14.

FVLGKGRGAAAAGGPQRIPANRFV [H21N]: the protein stability index came out at 1.88.

With FVLGKGRGAAAAGGPQRIPARRFV [H21R], the protein stability index was 2.32.

Consider FVLGKGRGAAAAGGPQRIPATRFV [H21T], for which the protein stability index is 2.72.

Regarding FVLGKGRGAAAAGGPQRIPAGRFV [H21G], the protein stability index worked out at 1.77.

Take FVLGKGRGAAAAGGPQRIPAHRQV [F23Q]: the protein stability index turned out to be 2.19.

With FVLGKGRGAAAAGGPQRIPAHRPV [F23P], the protein stability index worked out at 2.43.

As to FVLGKGRGAAAAGGPQRIPAHRHV [F23H], the protein stability index was 1.45.

For FVLGKGRGAAAAGGPQRIPAHRYV [F23Y], the protein stability index worked out at 1.71.

For FVLGKGRGAAAAGGPQRIPAHRTV [F23T], the protein stability index was 2.2.

On to FVLGKGRGAAAAGGPQRIPAHRVV [F23V], for which the protein stability index came to 1.93.

As to FVLGKGRGAAAAGGPQRIPAHRKV [F23K], the protein stability index came out at 3.99.

On to FVLGKGRGAAAAGGPQRIPAHRCV [F23C], for which the protein stability index came out at 1.08.

On to FVLGKGRGAAAAGGPQRIPAHRRV [F23R], for which the protein stability index worked out at 1.25.

With FVLGKGRGAAAAGGPQRIPAHREV [F23E], the protein stability index came out at 2.04.

Turning to FVLGKGRGAAAAGGPQRIPAHRNV [F23N], the protein stability index was determined as 1.9.

With FVLGKGRGAAAAGGPQRIPAHRSV [F23S], the protein stability index stood at 2.93.

Turning to FVLGKGRGAAAAGGPQRIPAHRMV [F23M], the protein stability index was 2.58.

For the variant FVLGKGRGAAAAGGPQRWPAHRFV [I18W], the protein stability index stood at 1.91.

Consider FVLGKGRGAAAAGGPQRPPAHRFV [I18P], for which the protein stability index came out at 2.12.

With FVLGKGRGAAAAGGPQRYPAHRFV [I18Y], the protein stability index was found to be 1.74.

With FVLGKGRGAAAAGGPQRMPAHRFV [I18M], the protein stability index is 2.87.

For FVLGKGRGAAAAGGPQRQPAHRFV [I18Q], the protein stability index turned out to be 2.03.

Consider FVLGKGRGAAAAGGPQRRPAHRFV [I18R], for which the protein stability index is 1.46.

Turning to FVLGKGRGAAAAGGPQRNPAHRFV [I18N], the protein stability index is 2.12.

FVLGKGRGAAAAGGPQRIPAHRFK [V24K]: the protein stability index was 2.12.

As to FVLGKGRGAAAAGGPQRIPAHRFS [V24S], the protein stability index came out at 2.21.

For FVLGKGRGAAAAGGPQRIPAHRFQ [V24Q], the protein stability index was found to be 1.7.

Regarding FVLGKGRGAAAAGGPQRIPAHRFT [V24T], the protein stability index was determined as 2.84.

For FVLGKGRGAAAAGGPQRIPAHRFD [V24D], the protein stability index was 2.27.

On to FVLGKGRGAAAAGGPQRIPAHRFR [V24R], for which the protein stability index is 1.8.

Take FVLGKGRGAAAAGGPQRIPAHRFP [V24P]: the protein stability index came to 2.47.

Consider FVLGKGRGAAAAGGPQRIPAHRFL [V24L], for which the protein stability index was 1.73.

Take FVLGKGRGAAAAGGPQRIPAHRFG [V24G]: the protein stability index is 1.56.

Consider FVLGKGRGAAAAGGPQRIPAHRFM [V24M], for which the protein stability index came to 3.

Take FVLGKGRGAAAAGGPQRIPNHRFV [A20N]: the protein stability index came out at 1.49.

Regarding FVLGKGRGAAAAGGPQRIPCHRFV [A20C], the protein stability index came out at 1.73.

Consider FVLGKGRGAAAAGGPQRIPSHRFV [A20S], for which the protein stability index stood at 1.53.

With FVLGKGRGAAAAGGPQRIPQHRFV [A20Q], the protein stability index stood at 1.73.

With FVLGKGRGAAAAGGPQRIPEHRFV [A20E], the protein stability index came to 2.49.

As for FVLGKGRGAAAAGGPQRIPTHRFV [A20T], the protein stability index was 1.74.

Consider FVLGKGRGAAAAGGPQRIPLHRFV [A20L], for which the protein stability index worked out at 1.76.

Turning to FVLGKGRGAAAAGGPQRIPMHRFV [A20M], the protein stability index turned out to be 2.09.

Take FVLGKGRGAAAAGGPQRIPGHRFV [A20G]: the protein stability index turned out to be 1.46.

For the variant FVLGKGRGAAAAGGPQRIPHHRFV [A20H], the protein stability index was 2.4.

For FVLGKGRGAAAAGGPQRIPFHRFV [A20F], the protein stability index stood at 2.32.

In the case of FVLGKGRGAAAAGGPQRIPRHRFV [A20R], the protein stability index stood at 1.35.

Turning to FVLGKGRGAAAAGGPQRIPAHNFV [R22N], the protein stability index worked out at 2.53.

Take FVLGKGRGAAAAGGPQRIPAHDFV [R22D]: the protein stability index came out at 2.35.

With FVLGKGRGAAAAGGPQRIPAHSFV [R22S], the protein stability index is 1.36.

For FVLGKGRGAAAAGGPQRIPAHQFV [R22Q], the protein stability index amounted to 1.84.

For FVLGKGRGAAAAGGPQRIPAHGFV [R22G], the protein stability index stood at 1.08.

On to FVLGKGRGAAAAGGPQRIPAHHFV [R22H], for which the protein stability index was 1.72.

On to FVLGKGRGAAAAGGPQRIPAHVFV [R22V], for which the protein stability index worked out at 2.14.

As for FVLGKGRGAAAAGGPQRIPAHMFV [R22M], the protein stability index was found to be 4.76.

Regarding FVLGKGRGAAAAGGPQRIPAHLFV [R22L], the protein stability index was determined as 2.3.

For the variant FVLGKGRGAAAAGGPQRIPAHTFV [R22T], the protein stability index came to 5.22.

With FVLGKGRGAAAAGGPQRIPAHKFV [R22K], the protein stability index turned out to be 1.82.
